For 23 molecules, Kd results are on record in US20240218054A1 (MABLOC, published 2024).

The target of the assay is T1, recombinant YFV E protein (soluble E, sE; YFV Asibi strain) (Yellow fever virus, Asibi strain, UniProt Q6DV88 286-678).
T1 construct: also called YFV E antigen; YFV E monomer
Nature of the assay: BLI monovalent (IgG on tip).

Residue numbers refer to the chain shown, from its start.

T1 sequence (Q6DV88 286-678): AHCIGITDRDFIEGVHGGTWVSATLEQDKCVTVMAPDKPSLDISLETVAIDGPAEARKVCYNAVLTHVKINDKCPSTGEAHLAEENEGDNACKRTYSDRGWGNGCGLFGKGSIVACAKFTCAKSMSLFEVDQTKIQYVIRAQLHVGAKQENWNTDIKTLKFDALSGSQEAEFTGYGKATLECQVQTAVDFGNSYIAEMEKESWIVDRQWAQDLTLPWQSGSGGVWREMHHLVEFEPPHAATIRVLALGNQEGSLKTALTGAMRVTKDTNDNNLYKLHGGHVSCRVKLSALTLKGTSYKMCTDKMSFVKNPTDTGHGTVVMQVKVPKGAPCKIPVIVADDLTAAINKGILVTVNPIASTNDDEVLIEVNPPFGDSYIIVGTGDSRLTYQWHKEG

B1: ADI-42227 (antibody, V domains shown)
VH: EVQLLESGAEVKEPGSSVKVSCKPSGGTFSSYVISWVRQAPGQGLEWMGGIIPIFGTPNYAQKFQGRVTITADDSTSTAHMELSSLTSDDTAVYYCARETYYYGSGSVPVHDWGQGTLVTVSS
VL: EIVMTQSPSSLSASVGDRVTITCRASQGIRNDLGWYQQKPGKAPKRLIYAASSLQSGVPSRFSGSGSGREFTLTISSLQPEDFATYYCLQHNTYPWTFGQGTKVEIK
notes: full-length IgG
One may read the Kd as a measure of binding affinity in units of concentration. As for B1, the Kd turned out to be 0.658 nM.

B2: ADI-48462 (antibody, V domains shown)
VH: QVQLVQSGGGVVQPGRSLRLSCAASGFTFSSYGMHWVRQAPGKGLEWVAVIWYDGSNKYYADSVKGRFTISRDNSKNTLYLQMNSLRAEDTAVYYCARDYYGSGDGYFDYWGQGTTVTVSS
VL: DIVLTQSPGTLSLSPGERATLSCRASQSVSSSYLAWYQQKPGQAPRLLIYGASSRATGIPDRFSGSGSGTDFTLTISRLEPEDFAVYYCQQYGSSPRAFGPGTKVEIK
notes: full-length IgG; also called Antibody Number 100
For B2, the Kd is more than 100 nM.

B3: ADI-42149 (antibody, V domains shown)
VH: QVQLVQSGAEVRKPGASVKVSCKASGYTFTSYGISWVRQAPGQGLEWMGWISTYNGNTNYAQKLQGRVTMTTDTSTSTAYMELRSLRSDDTAVYYCAREIDSNYVFDYWGQGTLVTVSS
VL: QSVLTQPASVSGSPGQSITISCTGTSSDVGGYNYVSWYQQHPGKAPKLMIYEVSNRPSGVSNRFSGSKSGNTASLTISGLQAEDEADYYCSSYTSSGTNIFGTGTKLTVL
notes: full-length IgG
On to B3, for which the dissociation constant Kd was determined as 177 nM.

B4: ADI-42225 (antibody, V domains shown)
VH: QVQLQESGPGLVKPSGTLSLTCAVSGGSITSSNWWSWVRQPPGKGLEWIGDIYHSGSTSYNPSLKSRVTISVDKSKNHFSLKLTSVTAADTAVYYCARIAAGYSTSWYYFDYWGQGTLVTVSS
VL: QSALTQPPSVSAAPGQKVTISCSGSSSNIGNSYVSWYQQVPGTAPKLLIYDNNKRPSGIPDRFSGSKSGTSATLGITGLQAGDEADYYCGTWDTSLSAGRVFGRGTKLTVL
notes: full-length IgG; also called Antibody Number 10
Take B4: the Kd is 31.5 nM.

B5: ADI-42216 (antibody, V domains shown)
VH: QVTLKESGPVLVKPTETLTLTCTVSGFSLSNTKMGVTWIRQPPGKALEWLAHIFSNDEKSCNTSLKSRLTISKDTSKSQVVLTMTNMDPVDTATYYCARLWFTEYPGAFDIWGQGTMVTVSS
VL: QAVVTQPPSASGSPGQSVTISCTGTSSDVGGYNYVSWYQQHPGKAPKLMVYEVTKRPSGVPDRFSGSKSGNAASLTVSGLQAEDEAEYYCSSYAGSNALVFSGGTKLTVL
notes: full-length IgG; also called Antibody Number 112
On to B5, for which the Kd was found to be 11.4 nM.

B6: ADI-42141 (antibody, V domains shown)
VH: QVQLVQSGGGLVQPGGSLRLSCAASGFTFSDHYMDWVRQAPGKGLEWVGRTRNKANSYTTKYAASVKGRFTISRDDSKNSLYLQMNSLKTEDTAVYYCARVEGGAWGAFDIWGQGTTVTVSS
VL: SYVLTQPPSVSVSPGQTARITCSGDALPKQYGYWYQQKPGQAPVLVIYKDSERPSGIPERFSGSSSGTTVTLTISGVQAEDEADYYCQSADRSGTVVFGGGTKLTVL
notes: full-length IgG; also called Antibody Number 111
Regarding B6, the equilibrium dissociation constant (Kd) amounted to 1.75 nM.

B7: ADI-49140 (antibody, V domains shown)
VH: EVQLVESGGGLVQPGGSLRLSCAASGFTFSDHYMDWVRQAPGRGLEWVGRSRNKVNSYTTDYAASVKGRFTISRDDSKNSLFLRMNSLKTEDTAVYYCARLTDSGYDDWGLGTLVTVSS
VL: QPELTQPPSVSVSPGQTARITCSGDALSKQYAYWYQQKPGQAPVVVIYKDSERPSGIPERFSGSRSGTTVTLTISGVQAEDEADYYCHSPDSHVVFGGGTKLTVL
notes: full-length IgG
On to B7, for which the dissociation constant Kd came out at 1.04 nM.

B8: ADI-49041 (antibody, V domains shown)
VH: EVQLVESGGGLVKPGGSLRLSCAASGFTFSHAWMTWVRQAPGKGLEWVGRIKSETDGGTANYAAPVKGRFTISRDDSKNTVYLQMVSLKTEDTAVYYCATAGIFGVVIMKGFDHWGQGTTVTVSS
VL: DIVMTQSPSTLSASVGDRVVITCRASQSISNWLAWYQQKSGKAPKLLIYKASRLESGVPSTFSGSGSGTEFTLTISSLQADDFASYYCQQYNDYPWTFGQGTKVEIK
notes: full-length IgG
For the molecule B8, the Kd is 0.997 nM.

B9: ADI-42181 (antibody, V domains shown)
VH: EVQLVESGGGLVQPGGSLRLSCAASGFTFSNYWMNWVRQAPGKGLEWVANIKQDGSEKYYVDSVKGRFTISRDNAKNSLYLQMNSLRAEDTAVYYCARKLSYSSGWYYFDYWGQGTLVTVSS
VL: DIVMTQTPATLSVSPGERATLSCRASQSVSSNVAWYQQKPGQAPRLLIHGASTRATGIPARFSGSGSGTEFTLTISSLQSEDFAVYYCQQYNNWPPLTFGGGTKLEIK
notes: full-length IgG
Take B9: the Kd worked out at 31.5 nM.

B10: ADI-46741 (antibody, V domains shown)
VH: EVQLVESGPGLVKPSETLSLTCTVSGGSISSYYWSWIRQPPGKGLEWIGYIYYSGSTNYNPSLKSRVTISVDTSKNQFSLKLSSVTAADTAVYYCARETCSGGSCYYRVGSAFDIWGQGTTVTVSS
VL: SYELIQLPSASVAPGKTARITCGGNNIGSKSVHWYQQKPGQAPVLVVYDDSDRPSGIPERFSGSNSGNTATLTISRVEAGDEADYYCQVWDSSSDHEVFGGGTKLTVL
notes: full-length IgG; also called Antibody Number 115
On to B10, for which the Kd was more than 100 nM.

B11: ADI-49139 (antibody, V domains shown)
VH: EVQLVETGSGLVRPSGTLSLTCAVSGDSISSNNWWSWVRQPPGKGLEWIGEIYHSGSTSYNPSLKSRVTISIDKSNNHFSLKLTSVTAADTAVYYCAKDMWAGTTTNWFGPWGQGTLVTVSS
VL: QSVLTQPPSVSAAPGQKVTISCSGSSSNIGYSHVSWYQQLPGTAPKVLIYDNDKRPSGIPDRFSGSKSGTSATLGITGLQTGDEADYYCGTWDTSLGVVFGGGTKLTVL
notes: full-length IgG; also called Antibody Number 11
As to B11, the Kd was 3.45 nM.

B12: ADI-42172 (antibody, V domains shown)
VH: QVQLVESGGGVVQPGRSLRLSCAASGFTFSSYGMHWVRQAPGKGLEWVAVMSYDGSNKYYADSLKGRFTISRDNSKNTLYLQMNSLRAEDTAVYFCAKAYDSSAYYYLDYWGQGTLVTVSS
VL: EIVLTQSPSTLSASVGDRVTITCRASQSISDWLAWYQQKPGKAPNLLIYRASSLESGVPSRFSGSGSGTEFTLTISSLQPDDFATYYCQQYNRYPYTFGQGTKVEIK
notes: full-length IgG; also called Antibody Number 117
Regarding B12, the equilibrium dissociation constant (Kd) amounted to 129 nM.

B13: ADI-42178 (antibody, V domains shown)
VH: B12 VH with Q1E, V12I, T28N, M51I, L64V, Y94H, F95Y, S103R, A104G
VL: B12 VL with E1D, V3Q, Y36F, N45K, S53G, S56T, P95S
notes: full-length IgG
Take B13: the Kd came to 34.4 nM.

B14: ADI-42195 (antibody, V domains shown)
VH: EVQLLESGGGMVQPGRSLRLSCAASGFTFDDYDMHWVRQGPGKGLEWVSGISWNSGGRGYADSVKGRFTISRDNAKNSLYLQMNSLRVEDTALYYCVKDYCSGGRCYSFDYWGQGTLVTVSS
VL: DIQMTQSPSSLSASVGDRVTITCQASQDISNYLNWYQQKPGKAPKLLIYDVSKLKTGVPPRFSGSGSGTDFTFTISSLQPEDIATYYCQQWGTFGQGTKVDIK
notes: full-length IgG; also called Antibody Number 116
On to B14, for which the Kd was found to be 1.86 nM.

B15: ADI-42200 (antibody, V domains shown)
VH: EVQLVESGGGVVQPGRSLRLSCAASGLTFSTYTLHWVRQAPGKGLEWVAVISSDGGNKYYADSVKGRFTISRDSSKNTLYLQMNSLRTEDTAVYYCAGGSPDYWGQGALVTVSS
VL: EIVMTQSPATLSLSPGERGTLSCRTSQSVSSFLAWYQQKPGQAPRLLMYDASNRATGIPARFSGSGSGTDFTLTISSLEPEDFAVYYCQQRSNWPYTFGQGTKVDIK
notes: full-length IgG; also called Antibody Number 102
For the molecule B15, the dissociation constant (Kd) turned out to be 5.63 nM.

B16: ADI-45126 (antibody, V domains shown)
VH: EVQLVESGGGLVQPGGSLRLSCAASGFTFSDHYMDWVRQAPGKGLEWVGRSTNKPNSYTTTYAASVRGRFTISRDESKNSLYLQMNSLKSDDTAVYYCVTTTVILFDYWGQGTLVTVSS
VL: SYELTQPPSVSVSPGQTARITCSGDALPKKYVYWFQQKSGQAPVLVIYEDRRGPSGIPERFSGSTSGTMATLTIRGAQVEDEADYFCYSTDSSGLLGVFGGGTKLTVL
notes: full-length IgG; also called Antibody Number 106
As for B16, the Kd amounted to 1.68 nM.

B17: ADI-50203 (antibody, V domains shown)
VH: EVQLVESGGGVVQPGRSLRLSCVPSGFTFSSYAMHWVRQAPGKGLEWVAMMSYDGGDKNYADSVKGRFTISRDNSKNTLYLQMRSLRAEDTAIYYCARAYDSRGYYYIEHWGQGTLVTVSS
VL: GIQLTQSPSTLSASVGDRVTITCRASQSVSDWLAWYQQKPGRAPNLLIYRASSLQSGVPSRFSGSGSGTEFTLTINSLQPDDFATYYCQQYKTYWTFGQGTKVEIK
notes: full-length IgG; also called Antibody Number 103
B17: the Kd worked out at 22.4 nM.

B18: ADI-49039 (antibody, V domains shown)
VH: QVQLQESGPGLVKPSETLSLTCAVSGYSISSGFYWGWIRQPPGKGLEWIGSMYQSGITYYNPSLKSRVTISVDTSKSQFSLKLTSVTAADTAMYYCARNAPENYYGSGRESFDIWGQGTMVTVSS
VL: QSVLTQPPSVSAAPGQKVTISCSGSSSNIGNNYVSWYQQLPGAAPKLLIYDNKKRPSGIPDRFSGSASGTSATMGITGLQTGDEADYYCGTWDSSLSAWVFGGGTKVTVL
notes: full-length IgG; also called Antibody Number 1
For B18, the dissociation constant Kd came out at 415 nM.

B19: ADI-42229 (antibody, V domains shown)
VH: B18 VH with Q54H, S77N, M120T
VL: B18 VL with L4V, L40F, G42R, A43T, M74L
notes: full-length IgG; also called Antibody Number 3
Consider B19, for which the Kd is 7.87 nM.

B20: ADI-45074 (antibody, V domains shown)
VH: QVQLQQWGAGLLKPSETLSLTCAVYGGSFSGYYWSWIRQPPGKGLEWIGEINHRGSTDYNPSLKSRVTMSVDTSKNQFSLRLSSVTAADTALYYCARGRLAWGLRGQKSPNFFAYWGQGATVTVSS
VL: DIQMTQSPDSLAVSLGERATINCKSSQSVFYSSNSQNYLAWYQQKPGQPPKLLIYWASTRESGVPDRFSGSGSATDFSLTISSLQAEDVAVYYCQQFHSPPWTFGQGTKLEIK
notes: full-length IgG
As for B20, the Kd worked out at 0.699 nM.

B21: ADI-50534 (antibody, V domains shown)
VH: EVQLQESGPGLVKPSETLSLTCTVSGGSISSSSYYWGWIRQPPGKGLEWIGSIYYSGSTYYNPSLKSRVTISVDTSKNQFSLKLSSVTAADTAVYYCARHSSGSYYLAGYYFDYWGQGTLVTVSS
VL: NFMLTQPHSVSESPGKTVTISCTRSSGSIASNYVQWYQQRPGSAPTTVIYEDNQRPSGVPDRFSGSIDSSSNSASLTISGLKTEDEADYYCQSYDSSNWVFGGGTKLTVL
notes: full-length IgG
Consider B21, for which the equilibrium dissociation constant (Kd) was more than 100 nM.

B22: ADI-50220 (antibody, V domains shown)
VH: EVQLVESGGGVVQPGRSLRLSCAASGFIFSSNSMHWVRQAPGKGLKWVAIISNDGRNKFYADAVKGRFTVSRDNSKNTLYLQMNSLRPEDTAVYYCARGYDSSGYWGFGDNWGQGTLVTVSS
VL: DIQVTQSPSTLSASVGDRVSITCRASQTISSWLAWYQQKPGKAPKLLMYKASNLQSGVPSRFTGSGSGTEFTLTISSLQPDDFATYYCQQYYSYPYTFGPGTKVDIK
notes: full-length IgG; also called Antibody Number 110
Turning to B22, the dissociation constant Kd worked out at 3.64 nM.

B23: ADI-45127 (antibody, V domains shown)
VH: EVQLVESGPVLVKPTETLRLTCTVSGFSLSNTKLGVSWIRQPPGKALEWLAHIFSNAEKSSSKSLKSRLSISQDTSKSLVVLTMTNMDPVDTATYFCARIPVEYGTPRGSFDTWGQGTTVTVSS
VL: QSVLTQPPSASGSPGQSVTISCAGTRSDVGGYNFVSWYQQHPGKAPKLLIYEVNKRPSGVPDRFSGSKSANTASLTVSGLQAEDEAEYFCSSYGGNNDLVFGGGTKVTVL
notes: full-length IgG; also called Antibody Number 101
In the case of B23, the equilibrium dissociation constant (Kd) amounted to 6.69 nM.
